Results reported in the supplement of paper PMC10065799, “High-throughput profiling of sequence recognition by tyrosine kinases and SH2 domains using bacterial peptide display” (eLife, 2023).

Molecular target: Hck (UniProt P08631)
Test: phosphorylation enrichment, bacterial display (enrichment ratio); higher = better substrate or ligand; peptides without Tyr show the background
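Also: 11-residue human phosphosite peptides and single-mutation variants displayed on the E. coli surface, counted by deep sequencing, each peptide's frequency after selection divided by its frequency in the unselected input library; frequency after pTyr selection over input frequency; kinase dosed for 20-30% of maximal phosphorylation in three min.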

Hck, sequence (P08631 whole entry, looked up): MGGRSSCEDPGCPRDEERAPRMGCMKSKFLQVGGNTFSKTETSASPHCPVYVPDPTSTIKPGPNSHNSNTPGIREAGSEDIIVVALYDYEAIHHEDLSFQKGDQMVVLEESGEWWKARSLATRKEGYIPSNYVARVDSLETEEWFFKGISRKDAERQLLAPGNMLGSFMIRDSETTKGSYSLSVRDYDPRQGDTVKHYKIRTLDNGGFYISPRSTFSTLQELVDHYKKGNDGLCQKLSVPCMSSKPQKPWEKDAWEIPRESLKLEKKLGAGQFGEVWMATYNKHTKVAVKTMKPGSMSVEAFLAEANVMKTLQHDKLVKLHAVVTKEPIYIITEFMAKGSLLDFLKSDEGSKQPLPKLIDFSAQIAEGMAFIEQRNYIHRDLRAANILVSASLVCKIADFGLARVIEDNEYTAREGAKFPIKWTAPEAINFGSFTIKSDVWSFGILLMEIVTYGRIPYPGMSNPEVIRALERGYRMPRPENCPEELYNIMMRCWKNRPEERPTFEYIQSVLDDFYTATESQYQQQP

Sequence	phosphorylation enrichment
MSLRSYGSWEG [APC_Y96_R99W]	0.459

Molecular target: MERTK (UniProt Q12866)
Test: as above

MERTK, sequence (Q12866 whole entry, looked up): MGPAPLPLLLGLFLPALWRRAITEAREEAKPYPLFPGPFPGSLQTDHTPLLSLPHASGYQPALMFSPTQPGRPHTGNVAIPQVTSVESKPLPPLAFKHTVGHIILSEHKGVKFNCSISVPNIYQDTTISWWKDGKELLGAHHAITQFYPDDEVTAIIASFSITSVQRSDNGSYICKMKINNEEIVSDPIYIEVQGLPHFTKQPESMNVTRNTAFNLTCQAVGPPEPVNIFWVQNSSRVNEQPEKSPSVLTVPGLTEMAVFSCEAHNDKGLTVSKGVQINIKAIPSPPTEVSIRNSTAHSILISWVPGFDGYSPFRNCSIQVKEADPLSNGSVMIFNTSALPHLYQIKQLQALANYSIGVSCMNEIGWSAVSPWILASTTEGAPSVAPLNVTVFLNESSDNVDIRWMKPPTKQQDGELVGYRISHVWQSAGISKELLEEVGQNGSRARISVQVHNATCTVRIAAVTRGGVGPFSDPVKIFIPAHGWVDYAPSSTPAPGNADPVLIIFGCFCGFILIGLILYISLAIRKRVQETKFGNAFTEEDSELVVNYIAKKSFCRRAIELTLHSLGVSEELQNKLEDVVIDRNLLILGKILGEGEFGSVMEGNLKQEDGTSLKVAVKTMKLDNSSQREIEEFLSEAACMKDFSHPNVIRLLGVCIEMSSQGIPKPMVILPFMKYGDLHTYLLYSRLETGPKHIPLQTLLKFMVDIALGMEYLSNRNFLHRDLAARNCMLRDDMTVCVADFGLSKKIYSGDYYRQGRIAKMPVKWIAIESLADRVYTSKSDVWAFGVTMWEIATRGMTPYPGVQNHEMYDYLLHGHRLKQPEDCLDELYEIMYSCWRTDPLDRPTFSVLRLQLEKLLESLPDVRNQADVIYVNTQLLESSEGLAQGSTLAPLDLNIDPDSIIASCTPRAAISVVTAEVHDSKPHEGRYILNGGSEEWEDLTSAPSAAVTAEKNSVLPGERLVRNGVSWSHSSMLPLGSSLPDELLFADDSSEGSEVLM

Sequence	phosphorylation enrichment
AGQKDYDRLRP [RAC3_Y64_E62K]	0.358
EWKQKYEESQS [MYH6_Y1462]	0.357
RNEAFYDTFST [EFCAB3_Y372_S370A]	14.4
SVTCTYSPVLN [TP53_Y126_A129V]	0.435
CERLPYDANKW [FLT1_Y815_S818N]	0.415
NPQKSYFIRLF [WAS_Y83_YF]	0.457
RNGDRYFKGIV [DCX_Y64]	0.433
LDPDSYNVFEN [FOXC1_Y159_M161V]	1.04
LANNEYYFRVC	0.823
FASVEYQEALS [GALNS_Y461_A459V]	0.416
DSEIRYLSADS [TTF1_Y476]	0.461
VTVLDYEKIGK [SYT1_Y365_D366E]	0.393
PSVVAYPKRSQ [MARK3_Y432]	0.409
LPKEQYLCTKE [AFG3L2_Y614_Y616C]	0.409
CSPLLYRVIMS [OR8D4_Y132]	0.507
GGPAEYLRRAS [PKLR_Y38_G37E]	0.361
EPGNLYIAKVE [CNTN4_Y180_T176P]	0.347
TEQDPSNNIVR [MMUT_Y364_Y364S]	0.464
GSSKIYFLHAD [TLR5_Y108_P112A]	0.797
PGQRVYVVAER [SHH_Y316]	0.447
WQQQSYLDSGI [CTNNB1_Y30]	0.418
GKGGSYSQAAC [HLA-B_Y344]	0.377
RSSGPYGGGGQ [HNRNPA1_Y341]	0.625
FSEVRYVKEPY [HIPK4_Y170]	0.371
TGDFGYRTPGY [TNS2_Y668_A670T]	0.481
NESVDYRATFP [MET_Y1003]	0.422
LERDIYNREEF [HLA-DPB1_Y59_Y57D]	0.49
RETLTYAQAQG [BRD1_Y33_R38G]	0.391
MSLRSYGSWEG [APC_Y96_R99W]	0.047

Test system: c-Abl (mouse)
Test: as above

Sequence	phosphorylation enrichment
AGQKDYDRLRP [RAC3_Y64_E62K]	0.627
EWKQKYEESQS [MYH6_Y1462]	0.706
RNEAFYDTFST [EFCAB3_Y372_S370A]	4.17
SVTCTYSPVLN [TP53_Y126_A129V]	0.804
CERLPYDANKW [FLT1_Y815_S818N]	0.804
NPQKSYFIRLF [WAS_Y83_YF]	0.692
RNGDRYFKGIV [DCX_Y64]	0.664
LDPDSYNVFEN [FOXC1_Y159_M161V]	1.93
LANNEYYFRVC	0.573
FASVEYQEALS [GALNS_Y461_A459V]	0.738
DSEIRYLSADS [TTF1_Y476]	0.727
VTVLDYEKIGK [SYT1_Y365_D366E]	0.54
PSVVAYPKRSQ [MARK3_Y432]	0.522
LPKEQYLCTKE [AFG3L2_Y614_Y616C]	0.723
CSPLLYRVIMS [OR8D4_Y132]	0.851
GGPAEYLRRAS [PKLR_Y38_G37E]	0.675
EPGNLYIAKVE [CNTN4_Y180_T176P]	0.665
TEQDPSNNIVR [MMUT_Y364_Y364S]	0.768
GSSKIYFLHAD [TLR5_Y108_P112A]	0.579
PGQRVYVVAER [SHH_Y316]	0.503
WQQQSYLDSGI [CTNNB1_Y30]	0.568
GKGGSYSQAAC [HLA-B_Y344]	0.625
RSSGPYGGGGQ [HNRNPA1_Y341]	0.643
FSEVRYVKEPY [HIPK4_Y170]	0.783
TGDFGYRTPGY [TNS2_Y668_A670T]	0.459
NESVDYRATFP [MET_Y1003]	0.591
LERDIYNREEF [HLA-DPB1_Y59_Y57D]	1.39
RETLTYAQAQG [BRD1_Y33_R38G]	0.418
MSLRSYGSWEG [APC_Y96_R99W]	0.273

Molecular target: EPHB1 (UniProt P54762)
Test: as above

EPHB1, sequence (P54762 whole entry, looked up): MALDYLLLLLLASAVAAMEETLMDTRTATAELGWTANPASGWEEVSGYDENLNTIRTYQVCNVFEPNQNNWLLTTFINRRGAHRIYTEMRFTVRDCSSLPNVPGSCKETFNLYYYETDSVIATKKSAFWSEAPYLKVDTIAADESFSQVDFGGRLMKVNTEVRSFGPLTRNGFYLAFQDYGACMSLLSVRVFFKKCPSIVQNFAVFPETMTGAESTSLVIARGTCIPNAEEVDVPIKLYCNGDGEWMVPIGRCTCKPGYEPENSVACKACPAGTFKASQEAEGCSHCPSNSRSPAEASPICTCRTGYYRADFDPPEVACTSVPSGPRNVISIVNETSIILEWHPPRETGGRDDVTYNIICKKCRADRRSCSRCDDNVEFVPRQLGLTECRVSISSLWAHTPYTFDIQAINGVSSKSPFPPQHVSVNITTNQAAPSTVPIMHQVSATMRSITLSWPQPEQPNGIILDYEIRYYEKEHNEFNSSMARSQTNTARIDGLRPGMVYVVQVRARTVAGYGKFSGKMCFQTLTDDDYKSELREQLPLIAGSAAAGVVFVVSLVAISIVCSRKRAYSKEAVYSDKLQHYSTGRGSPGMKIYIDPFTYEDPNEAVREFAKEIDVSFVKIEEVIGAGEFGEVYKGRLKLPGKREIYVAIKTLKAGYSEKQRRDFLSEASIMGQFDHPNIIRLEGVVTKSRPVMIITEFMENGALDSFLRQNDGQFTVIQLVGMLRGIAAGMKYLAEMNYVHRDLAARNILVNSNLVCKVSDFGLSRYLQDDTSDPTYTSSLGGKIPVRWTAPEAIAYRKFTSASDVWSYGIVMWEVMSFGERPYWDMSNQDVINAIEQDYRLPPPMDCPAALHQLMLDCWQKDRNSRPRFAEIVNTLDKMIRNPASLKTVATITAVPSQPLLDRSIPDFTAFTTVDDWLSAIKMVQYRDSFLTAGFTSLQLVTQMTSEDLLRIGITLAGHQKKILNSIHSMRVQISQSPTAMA

Sequence	phosphorylation enrichment
AGQKDYDRLRP [RAC3_Y64_E62K]	0.501
EWKQKYEESQS [MYH6_Y1462]	0.525
RNEAFYDTFST [EFCAB3_Y372_S370A]	1.98
SVTCTYSPVLN [TP53_Y126_A129V]	0.795
CERLPYDANKW [FLT1_Y815_S818N]	0.626
NPQKSYFIRLF [WAS_Y83_YF]	0.58
RNGDRYFKGIV [DCX_Y64]	0.335
LDPDSYNVFEN [FOXC1_Y159_M161V]	0.728
LANNEYYFRVC	0.682
FASVEYQEALS [GALNS_Y461_A459V]	0.621
DSEIRYLSADS [TTF1_Y476]	0.489
VTVLDYEKIGK [SYT1_Y365_D366E]	1.07
PSVVAYPKRSQ [MARK3_Y432]	0.517
LPKEQYLCTKE [AFG3L2_Y614_Y616C]	0.463
CSPLLYRVIMS [OR8D4_Y132]	0.691
GGPAEYLRRAS [PKLR_Y38_G37E]	0.41
EPGNLYIAKVE [CNTN4_Y180_T176P]	0.454
TEQDPSNNIVR [MMUT_Y364_Y364S]	0.468
GSSKIYFLHAD [TLR5_Y108_P112A]	0.492
PGQRVYVVAER [SHH_Y316]	0.63
WQQQSYLDSGI [CTNNB1_Y30]	0.489
GKGGSYSQAAC [HLA-B_Y344]	0.352
RSSGPYGGGGQ [HNRNPA1_Y341]	0.466
FSEVRYVKEPY [HIPK4_Y170]	0.474
TGDFGYRTPGY [TNS2_Y668_A670T]	0.4
NESVDYRATFP [MET_Y1003]	0.421
LERDIYNREEF [HLA-DPB1_Y59_Y57D]	0.706
MSLRSYGSWEG [APC_Y96_R99W]	0.581

Molecular target: FGFR3 (UniProt P22607)
Test: as above

FGFR3, sequence (P22607 whole entry, looked up): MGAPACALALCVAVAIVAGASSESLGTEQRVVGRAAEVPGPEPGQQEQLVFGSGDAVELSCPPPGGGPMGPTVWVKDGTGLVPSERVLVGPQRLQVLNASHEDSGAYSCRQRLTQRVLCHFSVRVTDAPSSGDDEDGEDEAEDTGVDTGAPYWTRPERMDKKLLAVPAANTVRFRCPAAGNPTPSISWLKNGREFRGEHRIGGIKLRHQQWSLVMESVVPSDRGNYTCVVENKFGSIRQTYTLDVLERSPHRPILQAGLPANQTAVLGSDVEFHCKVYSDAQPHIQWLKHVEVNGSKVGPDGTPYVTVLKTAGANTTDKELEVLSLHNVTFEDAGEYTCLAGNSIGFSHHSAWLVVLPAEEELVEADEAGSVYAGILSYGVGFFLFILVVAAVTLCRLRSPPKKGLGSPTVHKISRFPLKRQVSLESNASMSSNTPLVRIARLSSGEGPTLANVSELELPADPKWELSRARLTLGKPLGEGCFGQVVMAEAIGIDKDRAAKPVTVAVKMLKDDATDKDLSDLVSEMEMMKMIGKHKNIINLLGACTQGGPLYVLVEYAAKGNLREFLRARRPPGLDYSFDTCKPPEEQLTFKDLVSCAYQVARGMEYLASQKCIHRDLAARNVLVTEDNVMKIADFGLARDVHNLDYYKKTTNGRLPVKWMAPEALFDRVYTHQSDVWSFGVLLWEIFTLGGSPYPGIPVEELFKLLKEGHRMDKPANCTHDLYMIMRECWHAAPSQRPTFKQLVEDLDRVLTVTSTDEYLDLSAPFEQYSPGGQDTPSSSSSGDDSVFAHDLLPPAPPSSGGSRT

Sequence	phosphorylation enrichment
AGQKDYDRLRP [RAC3_Y64_E62K]	0.572
EWKQKYEESQS [MYH6_Y1462]	0.65
RNEAFYDTFST [EFCAB3_Y372_S370A]	0.811
SVTCTYSPVLN [TP53_Y126_A129V]	0.831
CERLPYDANKW [FLT1_Y815_S818N]	0.817
NPQKSYFIRLF [WAS_Y83_YF]	0.754
RNGDRYFKGIV [DCX_Y64]	0.483
LDPDSYNVFEN [FOXC1_Y159_M161V]	1.31
LANNEYYFRVC	3.11
FASVEYQEALS [GALNS_Y461_A459V]	0.631
DSEIRYLSADS [TTF1_Y476]	0.709
VTVLDYEKIGK [SYT1_Y365_D366E]	0.561
PSVVAYPKRSQ [MARK3_Y432]	0.949
LPKEQYLCTKE [AFG3L2_Y614_Y616C]	0.653
CSPLLYRVIMS [OR8D4_Y132]	0.75
GGPAEYLRRAS [PKLR_Y38_G37E]	0.415
EPGNLYIAKVE [CNTN4_Y180_T176P]	0.605
TEQDPSNNIVR [MMUT_Y364_Y364S]	0.557
GSSKIYFLHAD [TLR5_Y108_P112A]	0.731
PGQRVYVVAER [SHH_Y316]	0.524
WQQQSYLDSGI [CTNNB1_Y30]	0.597
GKGGSYSQAAC [HLA-B_Y344]	0.444
RSSGPYGGGGQ [HNRNPA1_Y341]	0.441
FSEVRYVKEPY [HIPK4_Y170]	0.538
TGDFGYRTPGY [TNS2_Y668_A670T]	0.465
NESVDYRATFP [MET_Y1003]	0.489
LERDIYNREEF [HLA-DPB1_Y59_Y57D]	0.906
